Experimental data: the supplement of paper PMC10567573

B1: KCNK9 (parent)
chain: DVPDLQSVCSCTCYRSQDYGGRSV

Variants of: B1
Assay: protein stability index of a GFP-peptide fusion (GPS, HEK-293T) (PSI 1-6); higher = more stable
Settings: c terminus: a fixed tail appended
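Further: lentivirally expressed fusions sorted by FACS into six bins by GFP to DsRed ratio, PSI derived from sequencing read proportions per bin multiplied by bin number.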

Protein stability index of substitutions, site by site:
P3: H 1.8 | D 1.36 | K 1.12 | S 1.99
G20: D 2.88 | Y 2.8 | Q 1.94 | S 2.07 | V 1.2 | I 2.15 | H 2.88 | C 2.26 | P 2.03
D1: N 1.29 | K 2.23 | G 1.26 | V 1.51 | S 2.29 | T 1.86 | M 1.54
S10: D 2.79 | P 1.52
T12: Y 1.94 | Q 1.65 | M 1.25 | V 2.47 | H 3.13 | W 2.72 | K 1.58 | D 2.79 | N 1.62 | C 1.21
V8: Q 2.42 | T 1.72 | R 2.29 | M 1.06 | D 2.8 | I 2 | S 2.06
S7: T 2.03 | F 2.32 | Q 2.29 | A 1.64 | E 1.81 | G 1.81 | W 2.48 | K 1.96
R15: D 3.58 | Y 1.98 | S 2.48 | P 2.05
Q17: G 2.21 | S 2.41 | I 1.87 | L 3.13 | A 1.56 | N 1.51
V2: R 2.2 | C 2.07 | K 2.43 | N 2.7 | Q 1.59
G21: T 2.63 | Q 1.4 | P 2.06 | D 2.22 | R 1.62
S23: Q 2.12 | K 4.09 | D 2.1 | I 3.17 | Y 2.59
Y14: V 2.38 | G 2.42 | Q 1.53 | A 1.91 | P 2.71 | W 3.24 | C 1.75 | N 2.23 | R 2.37
Y19: C 1.88 | T 2.64 | M 1.83 | V 1.66 | R 2.08 | A 1.88
Q6: N 1.82 | V 1.97 | E 1.3 | Y 4.08 | D 2.27 | G 1.63
V24: N 2.5 | Y 1.49 | C 1.49 | E 2.15 | W 2.42 | F 1.13 | I 2.37
D18: Y 1.56 | S 2.33 | N 2.08 | H 2.85 | C 1.97 | R 1.36 | T 1.83 | P 1.67 | Q 1.51 | V 1.82 | M 1.63
S16: Y 2.31 | E 1.79 | D 1.85 | N 2.1 | P 3.56 | V 1.03 | T 2.18 | K 2.08 | G 1.07
C11: M 2.13 | Q 2.59 | L 2.52 | T 2.81 | V 2.46 | K 3.05 | N 3.21 | P 3.8 | F 2.06
C9: I 2.38 | E 2.37 | V 2.18 | Q 2.03 | N 2.66 | S 3.05 | K 2.29 | T 1.89
D4: S 1.86 | K 2.17 | E 2.06 | F 1.4 | P 2.05 | Q 3.18
L5: H 1.82 | G 1.65 | W 1.71 | C 1.83 | T 2.12 | S 1.41 | E 3.6 | D 2.42 | R 1.77
C13: P 2.81 | Y 1.94 | D 2.12 | R 2.19 | A 2.28 | T 3 | Q 2.69 | E 2.85
R22: M 2.04 | A 1.84 | H 2.43 | G 2.06 | T 1.89 | S 2.2 | Q 3.22
